What was measured:
[1] = biological target: T1, in-line fusion protein of human desA-GLP1 and GLP1R-MMH (human); experiment: SPR Biacore 4000, mAb captured by anti-human Fc, 37 C
T1 construct: also called hdesA-GLP1_GLP1R-MMH
T1 chain: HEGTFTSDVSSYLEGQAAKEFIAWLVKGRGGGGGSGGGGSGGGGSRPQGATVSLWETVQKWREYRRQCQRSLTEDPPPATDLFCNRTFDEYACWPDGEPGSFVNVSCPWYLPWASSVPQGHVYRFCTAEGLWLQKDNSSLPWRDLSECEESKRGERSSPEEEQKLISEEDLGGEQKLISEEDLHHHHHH
Procedure: (§1) The equilibrium dissociation constant (KD) for GLP1R binding to selected GLP1R monoclonal antibodies (mAbs) was determined using a real-time surface plasmon resonance biosensor using a Biacore 4000 instrument. All binding studies were performed in 10 mM HEPES, 150 mM NaCl, 3 mM EDTA, and 0.05% v/v Surfactant Tween-20, pH 7.4 (HBS-ET) running buffer at 25° C. and 37° C. The Biacore CM5 sensor chip surface was first derivatized by amine coupling with human Fc specific mouse mAb to capture different GLP1R mAbs. […] At the end of each cycle, the GLP1R mAb capture surface was regenerated using a 12 sec injection of 20 mM phosphoric acid.
(§2) The association rate (kₐ) and dissociation rate (kd) were determined by fitting the real-time binding sensorgrams to a 1:1 binding model with mass transport limitation using Scrubber 2.0 c curve-fitting software.

[2] = biological target: T2, N-terminal region of human GLP1R-MMH (human); experiment: SPR Biacore 4000, mAb captured by anti-human Fc, 25 C
T2 construct: also called hGLP1R-MMH
T2 chain: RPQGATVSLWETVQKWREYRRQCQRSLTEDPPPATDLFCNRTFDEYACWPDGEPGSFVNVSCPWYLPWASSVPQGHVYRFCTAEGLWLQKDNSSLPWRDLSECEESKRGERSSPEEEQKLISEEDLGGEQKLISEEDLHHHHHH
Procedure: as §1, §2

[3] = biological target: T3, human GLP1R expressed with mouse IgG2a Fc (human); experiment: as above
T3 construct: It is probably the N-terminal region, as for hGLP1R-MMH, but the sentence is ambiguous; also called hGLP1R-mFc
T3 chain: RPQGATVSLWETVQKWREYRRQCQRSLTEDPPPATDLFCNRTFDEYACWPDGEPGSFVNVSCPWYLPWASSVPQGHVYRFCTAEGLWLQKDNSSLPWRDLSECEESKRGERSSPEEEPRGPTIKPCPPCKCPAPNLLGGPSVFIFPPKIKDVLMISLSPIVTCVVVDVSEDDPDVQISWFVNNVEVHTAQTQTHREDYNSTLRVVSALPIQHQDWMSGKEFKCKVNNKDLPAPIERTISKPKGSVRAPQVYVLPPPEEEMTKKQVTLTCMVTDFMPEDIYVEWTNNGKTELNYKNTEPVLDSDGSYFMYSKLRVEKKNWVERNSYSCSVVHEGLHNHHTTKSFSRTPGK
Procedure: as §1
(§3) The association rate (kₐ) and dissociation rate (kd) were determined by fitting the real-time binding sensorgrams to a 1:1 binding model with mass transport limitation using Scrubber 2.0 c curve-fitting software. Binding dissociation equilibrium constant (KD) and dissociative half-life (t½) were calculated from the kinetic rates as:

[4] = biological target: full-length human GLP1R on HEK293/CRE-luc/GLP1R cells (human, UniProt P43220 24-463); experiment: cell-based or functional assay
[5] = biological target: T4, macaca fascicularis GLP1R-MMH (macaca fascicularis); experiment: SPR Biacore 4000, mAb captured by anti-human Fc, 25 C
T4 construct: also called mfGLP1R-MMH; monomeric cynomolgus GLP1R
T4 chain: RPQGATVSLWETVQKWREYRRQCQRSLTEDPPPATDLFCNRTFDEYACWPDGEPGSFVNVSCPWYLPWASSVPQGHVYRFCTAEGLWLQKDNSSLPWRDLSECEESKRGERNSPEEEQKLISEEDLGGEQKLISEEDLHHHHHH
Procedure: as §1, §2

[6] = biological target: T2, N-terminal region of human GLP1R-MMH; experiment: SPR Biacore 4000, mAb captured by anti-human Fc, 37 C
Procedure: as §1, §2

[7] = biological target: T3, human GLP1R expressed with mouse IgG2a …; experiment: as above
Procedure: as §1, §3

[8] = biological target: T5, mouse GLP1R-MMH (mouse); experiment: SPR Biacore 4000, mAb captured by anti-human Fc, 25 C
T5 construct: It was injected at 100 nM only; also called mGLP1R-MMH; monomeric mouse GLP1R
T5 chain: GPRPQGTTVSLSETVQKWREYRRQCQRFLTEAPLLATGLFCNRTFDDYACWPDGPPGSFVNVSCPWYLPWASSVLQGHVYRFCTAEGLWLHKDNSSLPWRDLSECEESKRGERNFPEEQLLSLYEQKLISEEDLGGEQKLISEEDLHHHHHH
Procedure: as §1, §3

[9] = biological target: T5, mouse GLP1R-MMH; experiment: SPR Biacore 4000, mAb captured by anti-human Fc, 37 C
Procedure: as §1, §3

[10] = biological target: T4, macaca fascicularis GLP1R-MMH; experiment: as above
Procedure: as §1, §2

[11] = biological target: T1, in-line fusion protein of human …; experiment: SPR Biacore 4000, mAb captured by anti-human Fc, 25 C
Procedure: as §1, §3

B1: mAb36986 (antibody, human IgG4 S228P, kappa, V domains shown)
VH: QVQLVQSGTEVKKPGASVKVSCMASGYTFTTYGISWVRQAPGQGLEWMGWISAYNGNTKYAQRLQGRVTMTTDTSTTTAYMGLRGLRSDDTAVYFCARVTLSGRFDYWGQGTLVTVSP
VL: DIQMTQSPSSLSASVGDRVTITCQASQDISDYLNWYQQKPGKAPKLLIYDASNLETGVPSRFSGSGSGTDFTFTIRSLQPEDIATYYCQQYDNLPYTFGQGTKLEIKR
notes: In SPR the mAbs were captured by a human-Fc-specific antibody
[1]
  100 nM hdesA-GLP1_GLP1R-MMH Bound (RU): 28 RU
  Kd: 60.4 nM
  koff: 0.000987 s⁻¹
  kon: 16300 M⁻¹ s⁻¹
  t½: 12 min
[2]
  100 nM hGLP1R-MMH Bound (RU): 115 RU
  Kd: 0.139 nM
  koff: 9.97e-05 s⁻¹
  kon: 717000 M⁻¹ s⁻¹
  t½: 116 min
[3]
  100 nM hGLP1R-mFc Bound (RU): 187 RU
  Kd: 0.735 nM
  koff: 7.64e-05 s⁻¹
  kon: 104000 M⁻¹ s⁻¹
  t½: 151 min
[4]
  % Inhibition of human GLP1R activation by 40 pM GLP1 (CRE-luciferase reporter): 100%
  IC50 [M] of inhibition of human GLP1R activation by 40 pM GLP1 (CRE-luciferase reporter): 1.69e-09 M
[5]
  100 nM mfGLP1R-MMH Bound (RU): 103 RU
  Kd: 0.424 nM
  koff: 0.000102 s⁻¹
  kon: 240000 M⁻¹ s⁻¹
  t½: 113 min
[6]
  100 nM hGLP1R-MMH Bound (RU): 135 RU
  Kd: 0.594 nM
  koff: 0.000544 s⁻¹
  kon: 915000 M⁻¹ s⁻¹
  t½: 21 min
[7]
  100 nM hGLP1R-mFc Bound (RU): 246 RU
  Kd: 3.35 nM
  koff: 0.000432 s⁻¹
  kon: 129000 M⁻¹ s⁻¹
  t½: 27 min
[8]
  100 nM mGLP1R-MMH Bound (RU): 88 RU
  Kd: 20.1 nM
  koff: 0.00902 s⁻¹
  kon: 449000 M⁻¹ s⁻¹
  t½: 1.3 min
[9]
  100 nM mGLP1R-MMH Bound (RU): 70 RU
  Kd: 74.7 nM
  koff: 0.0485 s⁻¹
  kon: 649000 M⁻¹ s⁻¹
  t½: 0.24 min
[10]
  100 nM mfGLP1R-MMH Bound (RU): 128 RU
  Kd: 1.59 nM
  koff: 0.000501 s⁻¹
  kon: 315000 M⁻¹ s⁻¹
  t½: 23 min
[11]
  100 nM hdesA-GLP1_GLP1R-MMH Bound (RU): 13 RU
  Kd: 3.56 nM
  koff: 0.000108 s⁻¹
  kon: 30400 M⁻¹ s⁻¹
  t½: 107 min

B2: mAb37639 (antibody, human IgG4 S228P, kappa, V domains shown)
VH: EVQLLESGGGVVQPGGSLRLSCVASGFTFSSYAMSWVRQAPGKGLEWVSSISGSGGSTDNADSVKGRFTISRDNSKNTLYLQMNSLRAEDTAVYYCAKDRITIFGVVLNGAFDIWGQGTMVTVSS
VL: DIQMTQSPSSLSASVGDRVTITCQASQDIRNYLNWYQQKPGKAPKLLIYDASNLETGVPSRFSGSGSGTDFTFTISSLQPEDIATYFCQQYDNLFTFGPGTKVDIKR
notes: as for B1
[1]
  100 nM hdesA-GLP1_GLP1R-MMH Bound (RU): 21 RU
  Kd: 74.2 nM
  koff: 0.00127 s⁻¹
  kon: 17100 M⁻¹ s⁻¹
  t½: 9 min
[2]
  100 nM hGLP1R-MMH Bound (RU): 103 RU
  Kd: 0.474 nM
  koff: 0.000186 s⁻¹
  kon: 393000 M⁻¹ s⁻¹
  t½: 62 min
[3]
  100 nM hGLP1R-mFc Bound (RU): 122 RU
  Kd: 2.37 nM
  koff: 0.000156 s⁻¹
  kon: 65900 M⁻¹ s⁻¹
  t½: 74 min
[4]
  % Inhibition of human GLP1R activation by 40 pM GLP1 (CRE-luciferase reporter): 100%
  IC50 [M] of inhibition of human GLP1R activation by 40 pM GLP1 (CRE-luciferase reporter): 6.55e-09 M
[5]
  100 nM mfGLP1R-MMH Bound (RU): 83 RU
  Kd: 1.42 nM
  koff: 0.000195 s⁻¹
  kon: 137000 M⁻¹ s⁻¹
  t½: 59 min
[6]
  100 nM hGLP1R-MMH Bound (RU): 123 RU
  Kd: 0.632 nM
  koff: 0.000422 s⁻¹
  kon: 668000 M⁻¹ s⁻¹
  t½: 27 min
[7]
  100 nM hGLP1R-mFc Bound (RU): 185 RU
  Kd: 3.52 nM
  koff: 0.000354 s⁻¹
  kon: 101000 M⁻¹ s⁻¹
  t½: 33 min
[8]
  100 nM mGLP1R-MMH Bound (RU): 85 RU
  Kd: 16.9 nM
  koff: 0.00454 s⁻¹
  kon: 269000 M⁻¹ s⁻¹
  t½: 2.5 min
[9]
  100 nM mGLP1R-MMH Bound (RU): 97 RU
  Kd: 22.1 nM
  koff: 0.00959 s⁻¹
  kon: 435000 M⁻¹ s⁻¹
  t½: 1.2 min
[10]
  100 nM mfGLP1R-MMH Bound (RU): 110 RU
  Kd: 1.94 nM
  koff: 0.000418 s⁻¹
  kon: 215000 M⁻¹ s⁻¹
  t½: 28 min
[11]
  100 nM hdesA-GLP1_GLP1R-MMH Bound (RU): 8 RU
  Kd: 16 nM
  koff: 0.00019 s⁻¹
  kon: 11900 M⁻¹ s⁻¹
  t½: 61 min

B3: mAb37645 (antibody, human IgG4 S228P, kappa, V domains shown)
VH: QVRLQQWGAGLLKPSETLSLTCAVYGGSFSGYFWSWIRQPPGKGLEWIGEINHGGNTNSNPSLKSRVTISVDTSKNQFSLKLSAVIAADTAVYYCARGQYRSGGGYWYFDLWGRGTLVTVSS
VL: EIVLTQSPGTLSLSPGERATLSCRASQSISSVHLAWYQQKPGQAPRLLIYGASSRATGIPDRFSGSGSETDFTLTVSRLEPDDFTMYYCQQYGSSPWTFGQGTKVEIKR
notes: as for B1
[1]
  100 nM hdesA-GLP1_GLP1R-MMH Bound (RU): 71 RU
  Kd: 16.5 nM
  koff: 0.00229 s⁻¹
  kon: 139000 M⁻¹ s⁻¹
  t½: 5 min
[2]
  100 nM hGLP1R-MMH Bound (RU): 60 RU
  Kd: 5.72 nM
  koff: 0.000866 s⁻¹
  kon: 152000 M⁻¹ s⁻¹
  t½: 13 min
[3]
  100 nM hGLP1R-mFc Bound (RU): 91 RU
  Kd: 1.42 nM
  koff: 0.000183 s⁻¹
  kon: 128000 M⁻¹ s⁻¹
  t½: 63 min
[4]
  % Inhibition of human GLP1R activation by 40 pM GLP1 (CRE-luciferase reporter): 73%
  IC50 [M] of inhibition of human GLP1R activation by 40 pM GLP1 (CRE-luciferase reporter): 1.23e-09 M
[5]
  100 nM mfGLP1R-MMH Bound (RU): 35 RU
  Kd: 19.6 nM
  koff: 0.000826 s⁻¹
  kon: 42200 M⁻¹ s⁻¹
  t½: 14 min
[6]
  100 nM hGLP1R-MMH Bound (RU): 70 RU
  Kd: 18 nM
  koff: 0.00349 s⁻¹
  kon: 195000 M⁻¹ s⁻¹
  t½: 3.3 min
[7]
  100 nM hGLP1R-mFc Bound (RU): 116 RU
  Kd: 2.59 nM
  koff: 0.00065 s⁻¹
  kon: 251000 M⁻¹ s⁻¹
  t½: 18 min
[8]
  100 nM mGLP1R-MMH Bound (RU): 30 RU
  Kd: 10.8 nM
  koff: 0.000617 s⁻¹
  kon: 56900 M⁻¹ s⁻¹
  t½: 19 min
[9]
  100 nM mGLP1R-MMH Bound (RU): 42 RU
  Kd: 29.8 nM
  koff: 0.00249 s⁻¹
  kon: 83600 M⁻¹ s⁻¹
  t½: 4.6 min
[10]
  100 nM mfGLP1R-MMH Bound (RU): 42 RU
  Kd: 55.2 nM
  koff: 0.00384 s⁻¹
  kon: 69500 M⁻¹ s⁻¹
  t½: 3 min
[11]
  100 nM hdesA-GLP1_GLP1R-MMH Bound (RU): 58 RU
  Kd: 4.32 nM
  koff: 0.00052 s⁻¹
  kon: 120000 M⁻¹ s⁻¹
  t½: 22 min
